According to paper PMC4580983 (Nature Communications, 2015):

Key:
PF4 tetramer (human PF4) = molecular target: T1, PF4 tetramer (human PF4) (human, UniProt P02776); experiment: crystal structure; KKO-Fab (5 mg/ml) mixed with hPF4, on ice overnight; hanging drop, 16 °C, 7% PEG6000, 0.1 M Tris-HCl pH 7.8; 4.10 Å; conditions: both partners purified
T1 construct: platelet factor 4 (PF4), human, wild type, same construct as m1, as the tetramer; Same protein as m1; also called hPF4 tetramer

[1] = molecular target: T2, wild-type human platelet factor 4 (hPF4) (human, UniProt P02776); experiment: ELISA; Immulon 4 HBX plates coated overnight with PF4 or PF4 mutant at 5 ug/ml, blocked with 1% BSA in PBS; antibody in solution; A405; conditions: both partners purified
T2 construct: platelet factor 4 (PF4), human, wild type, expressed from plasmid pMT/BiP/V5-His; Probably the mature 70-residue PF4 behind the BiP signal of the vector; also called wtPF4; rPF4

[2] = molecular target: the molecule itself; experiment: crystal structure; hPF4 (7 mg/ml) with six-fold molar excess fondaparinux in PBS and 0.3 M NaCl; hanging drop, 16 °C, 2% PEG4000, 17% MPD, 0.1 M sodium acetate pH 5.6; 2.50 Å

B1: KKO-Fab (Fab fragment of the murine monoclonal HIT-like anti-PF4 antibody KKO) (Fab, V domains shown)
VH: VQLQQSGAELVKPGASVKLSCKASGYTFTNYFIYWVKQRPGQGLEWIGEINPRNGDTDFNEKFESRATLTVDKSSSTAYMQLSSLTSEDSAIYYCTRSPYGNNYGFTYWGQGTLVTVSA
VL: DIQMIQSQKFMSTSVGDRVTVTCKASQNVGTNVAWYQQKPGQSPNALIYSASYRYSGVPDRFTGSGSGTDFTLTITNVQSEDLADYFCQQYNSYPLTFGTGTKLDLK
notes: From murine IgG2b kappa KKO
B1: binds (PF4 tetramer (human PF4)).

B2: KKO (murine anti-human PF4 IgG2bκ monoclonal antibody) (antibody, V domains shown)
VH: B1 VH
VL: B1 VL
notes: Fab part as the heavy chain of m3 (PDB 4R97, PDB 4R9Y); as the light chain of m3 (PDB 4R97, PDB 4R9Y); IgG2b kappa, whole IgG; also called HIT antibody KKO; HIT-like antibody KKO; source: purified from conditioned PFHM-II media (protein A-agarose); copies: 2 + 2
B2: binds [1].

B3: wild-type human platelet factor 4 (hPF4) (natural protein)
chain: EAEEDGDLQCLCVKTTSQVRPRHITSLEVIKAGPHCPTAQLIATLKNGRKICLDLQAPLYKKIIKKLLES
notes: platelet factor 4 (PF4), human, wild type, expressed from plasmid pMT/BiP/V5-His; Probably the mature 70-residue PF4 behind the BiP signal of the vector; also called wtPF4; rPF4
B3 was tested, and the “stoichiometry N” value [2] was 4.
